Data reported in PMC10605901, “Clinical Cases and the Molecular Profiling of a Novel Childhood Encephalopathy-Causing GNAO1 Mutation P170R” (Cells, 2023).

Biological target: T1, Gαo[P170R]^Gly92-GFP (human, UniProt P09471-1 1-354, P170R)
T1 construct: Pathogenic de novo variant found in two patients; also called Gαo[P170R]-GFP; P170R mutant; source: N2a cells, transfected, in lysate; not shown: GFP, internal (after residue 92), kept
Test: co-IP; N2a cells co-transfected with Gαo-GFP constructs and mRFP-Gβ1/mRFP-Gγ3 (1:1:1) or HA-RGS19 (1:1); cleared lysates (20 mM Tris-HCl pH 8.0, 1% Triton X-100, 10% glycerol in PBS) incubated with GST-tagged anti-GFP nanobody, then Glutathione Sepharose 4B beads overnight at 4 °C; Western blot for GFP, mRFP and/or HA; quantification normalized to the precipitated Gαo-GFP
Details: partners not purified

T1 sequence (P09471 whole entry P170R): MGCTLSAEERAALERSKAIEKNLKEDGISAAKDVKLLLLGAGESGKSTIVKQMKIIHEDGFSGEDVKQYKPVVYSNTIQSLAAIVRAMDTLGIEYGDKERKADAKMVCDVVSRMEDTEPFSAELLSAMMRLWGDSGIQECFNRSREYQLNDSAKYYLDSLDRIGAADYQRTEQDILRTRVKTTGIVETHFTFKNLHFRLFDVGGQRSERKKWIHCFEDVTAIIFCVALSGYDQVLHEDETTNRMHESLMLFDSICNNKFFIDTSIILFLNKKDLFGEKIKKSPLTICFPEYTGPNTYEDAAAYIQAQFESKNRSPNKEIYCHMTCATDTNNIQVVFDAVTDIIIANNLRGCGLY

fold reduction of co-precipitated RGS19 against wild-type Gαo-GFP: > 2 fold
B1: 3xHA-RGS19 (natural protein, UniProt P49795 1-217, looked up)
chain: MPTPHEAEKQITGPEEADRPPSMSSHDTASPAAPSRNPCCLCWCCCCSCSWNQERRRAWQASRESKLQPLPSCEVCATPSPEEVQSWAQSFDKLMHSPAGRSVFRAFLRTEYSEENMLFWLACEELKAEANQHVVDEKARLIYEDYVSILSPKEVSLDSRVREGINKKMQEPSAHTFDDAQLQIYTLMHRDSYPRFLSSPTYRALLLQGPSQSSSEA
notes: RGS19 (regulator of G-protein signaling 19); also called 3×HA-RGS19; RGS19 (tagged with 3 × HA); source: N2a cells, transfected, in lysate
